To fix the notation:
B1: Disintegrin and metalloproteinase domain-containing protein 22 (Homo sapiens), Q9P0K1-1 (parent)
chain: MQAAVAVSVPFLLLCVLGTCPPARCGQAGDASLMELEKRKENRFVERQSIVPLRLIYRSGGEDESRHDALDTRVRGDLGGPQLTHVDQASFQVDAFGTSFILDVVLNHDLLSSEYIERHIEHGGKTVEVKGGEHCYYQGHIRGNPDSFVALSTCHGLHGMFYDGNHTYLIEPEENDTTQEDFHFHSVYKSRLFEFSLDDLPSEFQQVNITPSKFILKPRPKRSKRQLRRYPRNVEEETKYIELMIVNDHLMFKKHRLSVVHTNTYAKSVVNMADLIYKDQLKTRIVLVAMETWATDNKFAISENPLITLREFMKYRRDFIKEKSDAVHLFSGSQFESSRSGAAYIGGICSLLKGGGVNEFGKTDLMAVTLAQSLAHNIGIISDKRKLASGECKCEDTWSGCIMGDTGYYLPKKFTQCNIEEYHDFLNSGGGACLFNKPSKLLDPPECGNGFIETGEECDCGTPAECVLEGAECCKKCTLTQDSQCSDGLCCKKCKFQPMGTVCREAVNDCDIRETCSGNSSQCAPNIHKMDGYSCDGVQGICFGGRCKTRDRQCKYIWGQKVTASDKYCYEKLNIEGTEKGNCGKDKDTWIQCNKRDVLCGYLLCTNIGNIPRLGELDGEITSTLVVQQGRTLNCSGGHVKLEEDVDLGYVEDGTPCGPQMMCLEHRCLPVASFNFSTCLSSKEGTICSGNGVCSNELKCVCNRHWIGSDCNTYFPHNDDAKTGITLSGNGVAGTNIIIGIIAGTILVLALILGITAWGYKNYREQRQLPQGDYVKKPGDGDSFYSDIPPGVSTNSASSSKKRSNGLSHSWSERIPDTKHISDICENGRPRSNSWQGNLGGNKKKIRGKRFRPRSNSTETLSPAKSPSSSTGSIASSRKYPYPMPPLPDEDKKVNRQSARLWETSI
B2: Disintegrin and metalloproteinase domain-containing protein 22 (Homo sapiens), Q9P0K1-3 (parent)
chain: MQAAVAVSVPFLLLCVLGTCPPARCGQAGDASLMELEKRKENRFVERQSIVPLRLIYRSGGEDESRHDALDTRVRGDLGGPQLTHVDQASFQVDAFGTSFILDVVLNHDLLSSEYIERHIEHGGKTVEVKGGEHCYYQGHIRGNPDSFVALSTCHGLHGMFYDGNHTYLIEPEENDTTQEDFHFHSVYKSRLFEFSLDDLPSEFQQVNITPSKFILKPRPKRSKRQLRRYPRNVEEETKYIELMIVNDHLMFKKHRLSVVHTNTYAKSVVNMADLIYKDQLKTRIVLVAMETWATDNKFAISENPLITLREFMKYRRDFIKEKSDAVHLFSGSQFESSRSGAAYIGGICSLLKGGGVNEFGKTDLMAVTLAQSLAHNIGIISDKRKLASGECKCEDTWSGCIMGDTGYYLPKKFTQCNIEEYHDFLNSGGGACLFNKPSKLLDPPECGNGFIETGEECDCGTPAECVLEGAECCKKCTLTQDSQCSDGLCCKKCKFQPMGTVCREAVNDCDIRETCSGNSSQCAPNIHKMDGYSCDGVQGICFGGRCKTRDRQCKYIWGQKVTASDKYCYEKLNIEGTEKGNCGKDKDTWIQCNKRDVLCGYLLCTNIGNIPRLGELDGEITSTLVVQQGRTLNCSGGHVKLEEDVDLGYVEDGTPCGPQMMCLEHRCLPVASFNFSTCLSSKEGTICSGNGVCSNELKCVCNRHWIGSDCNTYFPHNDDAKTGITLSGNGVAGTNIIIGIIAGTILVLALILGITAWGYKNYREQRQLPQGDYVKKPGDGDSFYSDIPPGVSTNSASSSKKRSNGLSHSWSERIPDTKHISDICENGRPRSNSWQGNLGGNKKKIRGKRFRPRSNSTE
B3: Disintegrin and metalloproteinase domain-containing protein 22 (Homo sapiens), Q9P0K1-1 (parent)
chain: B1 chain
partner: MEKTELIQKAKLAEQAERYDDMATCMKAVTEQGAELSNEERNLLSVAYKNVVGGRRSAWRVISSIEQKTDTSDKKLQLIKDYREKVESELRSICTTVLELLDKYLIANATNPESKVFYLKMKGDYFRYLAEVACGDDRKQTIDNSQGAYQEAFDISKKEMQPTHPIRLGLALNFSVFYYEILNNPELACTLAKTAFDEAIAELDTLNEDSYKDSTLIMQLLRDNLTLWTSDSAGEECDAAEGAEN

The variants in one test derive from B1. Conditions: with 1433z_human YWHAZ.
For the variant R831Q;S832G;R854Q;S855A, the “effect of a mutation on the interaction” value is “disrupting interaction”.

The variants in a further test derive from B1. Conditions: with 1433b_human YWHAB.
For the variant R831Q;S832G;R854Q;S855A, the “effect of a mutation on the interaction” value is reported as “disrupting interaction”.

Variants of B2 are the subject of the next test. The conditions noted are these: with 1433b_human YWHAB.
Take R854Q;S855A: the “effect of a mutation on the interaction” value is on record as “decreasing interaction”.
On the same count and under the same terms, for R831Q;S832G;R854Q;S855A the value was “disrupting interaction”; for R831Q;S832G, “decreasing interaction”.

The variants in another test derive from B2. Conditions: with 1433z_human YWHAZ.
Turning to R831Q;S832G;R854Q;S855A, the “effect of a mutation on the interaction” value is recorded as “disrupting interaction”.
On the same count and under the same terms, then R831Q;S832G, with “decreasing interaction”.

The variants in another test derive from B3. Conditions: with 1433t_human YWHAQ.
Consider R831Q;S832G;R854Q;S855A, for which the “effect of a mutation on the interaction” value was “disrupting interaction”.

The values are drawn from IntAct's records for PubMed 16868027.
